Test results as given in patent US20150010525A1, “Catalytic Tagging System to Study Macro-Molecular Interactions Using Engineered Ubiquitin Ligase and Ubiquitin-Like Proteins to Facilitate Substrate Identification” (THE REGENTS OF THE UNIVERSITY OF CALIFORNIA, priority 2012, published 2015).
Where a SMILES comes first, the peptide text is derived from it. The star is where a group is joined. Cbz = O=C(OCc1ccccc1)*

Assays:
proteasome = experiment: PGAM5(Δ24) ubiquitination in HeLa cells; assay type: cell-based; details: HA-Ubiquitin and PGAM5(Δ24)-Myc
Method: HeLa cells are transiently co-transfected with HA-Ubiquitin, PGAM5(Δ24)-Myc, with or without XIAP or the treatment of MG132. Ubiquitination of PGAM5(Δ24)-Myc are addressed by immunoprecipitating with Myc antibody then blotting with HA antibody.
HeLa cells were transfected with Lipofectamine 2000 (Invitrogen). Cells were lysed either in M-PER mammalian protein extraction buffer (Thermo) or NP40 buffer (50 mM HEPES pH 7.4, 150 mM NaCl, 1% NP40), supplemented with protease inhibitor cocktail (Thermo). 10% SDS-polyacrylamide gel (PAGE) combined with MOPS running buffer was used to separate full length PGAM5 from the truncated form for immuno-blotting analysis. 4-12% SDS-PAGE gels were generally used for all other analysis. Immuno-precipitation with anti-Myc tag antibody (cell signaling) was performed with a standard procedure using manufacture's instructions.

Jurkat and HeLa cells = experiment: Cytosolic PGAM5(Δ24) immunoblot in apoptotic cells; assay type: cell-based; details: 1 μM STS, 4 hours
GST-XIAP = molecular target: T1, GST-XIAP (Homo sapiens, UniProt P98170); experiment: In vitro GST pull down; assay type: binding; details: recombinant proteins
T1 construct: made in house
Description: (§1) FIG. 12 illustrates the identification of the proteolytic form of PGAM5 as an XIAP and cIAP1 substrate in vitro. […] Overall, 15 unique peptides from PGAM5 were recovered and account for 43% of the entire protein sequence. (B) An example of LC-MS/MS spectrum from endogenous PGAM5 N-terminal peptide after subtiligase labeling and positive enrichment. A non-natural amino acid, 2-aminobutyric acid (Abu), is a designed tag showing characteristic labeling by subtiligase. (C) PGAM5 is cleaved into a truncated form in cells. Jurkat cells were transiently transfected with C-terminal Myc tagged full length PGAM5 or PGAM5 (Δ2-24). […] (D) N-terminal amino acid sequence alignment of PGAM5(Δ24) and other known evolutionarily conserved IBM sequences. Reaper, Hid, and Grim are Drosophila proteins that bind DIAP1, the Drosophila IAP. Amino acids are colored according to their chemical properties. (E) XIAP binds PGAM5(Δ24) but not the full length PGAM5. Recombinant GST fused XIAP, PGAM5(FL), and PGAM5(Δ24) were used for in vitro GST pull down experiments. (F) PGAM5(Δ24) binds to XIAP and cIAP1 independent of the RING domain. […] The resins were washed and proteins were eluted and analyzed with SDSPAGE and coomassie blue staining. […] The ubiquitination assay was performed in vitro and PGAM5 is detected with an anti-His antibody.

XIAP = XIAP (Homo sapiens, UniProt P98170); experiment: In vitro PGAM5 ubiquitination assay with XIAP; assay type: biochemical; details: 50 nM UBE1, 200 nM UbcH5b, 700 nM XIAP, 1.5 μM PGAM5-His6
Description: as §1, with “antibody. […]” for “antibody.”

cIAP1 [1] = molecular target: T2, cIAP1 (Homo sapiens, UniProt Q13490); experiment: In vitro PGAM5 ubiquitination assay with cIAP1; assay type: biochemical; details: 50 nM UBE1, 200 nM UbcH5b, 700 nM cIAP1, 1.5 μM PGAM5-His6
T2 construct: expressed in transfected cells; host or cells: HEK293
Description: as §1, with “antibody. […]” for “antibody.”

cIAP1 [2] = molecular target: T2, cIAP1; experiment: Co-immunoprecipitation in HEK293 cells; assay type: cell-based; details: Flag-cIAP1 co-transfection, anti-Myc IP
Method: FIG. 13 illustrates functional studies of PGAM5 in cells. (A) PGAM5(Δ24) binds XIAP and cIAP1 in vivo. On the left, HEK293 cells were cotransfected with Flag-cIAP1 and PGAM5(FL)-Myc or PGAM5(Δ24)-Myc. Total cell lysates were analyzed by immune-blotting with anti-Flag and anti-Myc antibodies (bottom two panels). Anti-Myc immune-precipitates (IP) were subjected to immunoblot analysis using anti-Myc and anti-Flag antibodies (top two panels). On the right, PGAM5(Δ24)-Myc was transiently expressed in HEK293 cells. 36 hours after transfection, cells were lysed and subjected for Immuno-precipitation with either anti-Myc antibody or an isotype control antibody (mouse IgG). Proteins in the whole cell lysate (bottom three panels) and proteins that bind to the antibody conjugated sepharose beads (top three panels) were assayed with immunoblotting. An asterisk indicates the position of the immunoglobulin heavy chain. (B) XIAP and cIAP1 stimulate PGAM5(Δ24) ubiquitination in vivo. […] 24 hours after transfection, cell viability was measured by Annexin V staining. […] Error bars represent SEM calculated from triplicate experiments. […] Cell viability is then immediately measured by CellTiter-Glo luminescent assay. […] PGAM5 levels are analyzed with anti-Myc immune-blotting before STS treatment. Error bars represent SEM calculated from triplicate samples. […]

T2 sequence (Q13490 whole entry): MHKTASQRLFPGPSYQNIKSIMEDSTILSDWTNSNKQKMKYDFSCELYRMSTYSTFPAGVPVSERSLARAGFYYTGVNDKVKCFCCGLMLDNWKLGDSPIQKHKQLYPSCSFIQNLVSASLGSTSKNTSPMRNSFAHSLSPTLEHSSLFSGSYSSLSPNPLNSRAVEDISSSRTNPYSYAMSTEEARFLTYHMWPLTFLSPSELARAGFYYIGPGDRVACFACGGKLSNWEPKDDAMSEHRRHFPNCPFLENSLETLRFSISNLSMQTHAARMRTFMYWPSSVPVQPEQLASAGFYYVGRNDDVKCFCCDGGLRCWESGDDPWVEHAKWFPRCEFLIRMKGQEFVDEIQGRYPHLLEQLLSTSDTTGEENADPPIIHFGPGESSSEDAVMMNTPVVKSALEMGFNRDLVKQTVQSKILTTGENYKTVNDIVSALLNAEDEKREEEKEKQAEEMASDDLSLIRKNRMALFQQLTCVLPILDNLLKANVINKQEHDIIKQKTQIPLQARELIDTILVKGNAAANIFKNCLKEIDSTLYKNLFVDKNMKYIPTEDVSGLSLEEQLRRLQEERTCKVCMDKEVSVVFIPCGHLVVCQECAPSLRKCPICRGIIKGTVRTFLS
Chain of XIAP (P98170 whole entry): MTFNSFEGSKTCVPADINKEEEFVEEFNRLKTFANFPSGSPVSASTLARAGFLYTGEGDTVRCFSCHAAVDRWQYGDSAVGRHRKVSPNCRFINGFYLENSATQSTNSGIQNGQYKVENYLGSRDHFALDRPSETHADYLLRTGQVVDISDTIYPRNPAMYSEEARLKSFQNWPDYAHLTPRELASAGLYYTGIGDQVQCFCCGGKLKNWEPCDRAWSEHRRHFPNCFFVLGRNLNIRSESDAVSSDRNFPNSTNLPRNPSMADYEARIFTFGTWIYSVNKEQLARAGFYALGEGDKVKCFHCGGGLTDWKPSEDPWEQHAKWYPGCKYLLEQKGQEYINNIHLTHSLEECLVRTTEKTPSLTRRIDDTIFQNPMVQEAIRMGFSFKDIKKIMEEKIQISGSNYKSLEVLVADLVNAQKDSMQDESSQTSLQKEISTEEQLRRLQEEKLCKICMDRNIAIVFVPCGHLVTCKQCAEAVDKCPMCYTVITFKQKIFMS
T1 sequence (P98170 whole entry): as above

With `CC(C)C[C@@H](C=O)NC(=O)[C@H](CC(C)C)NC(=O)[C@H](CC(C)C)NC(=O)OCc1ccccc1` [MG132] (Cbz-Leu-Leu-Leu-aldehyde) the “level of ubiquitination of PGAM5(Δ24)” value (proteasome) was “increased”.

For `CN[C@@H]1C[C@H]2O[C@@](C)([C@@H]1OC)n1c3ccccc3c3c4c(c5c6ccccc6n2c5c31)C(=O)NC4` [STS, staurosporin], the “cytosolic level of PGAM5(Δ24)” value (Jurkat and HeLa cells) was “significant increase in PGAM5(Δ24)”.

B1: PGAM5(Δ24): cleaved form of PGAM5 lacking the first 24 residues, neo-IBM sequence starting with Ala25 (protein, UniProt Q96HS1 25-289, looked up, fragment)
chain: AVAVGKPRAGGDAEPRPAEPPAWAGGARPGPGVWDPNWDRREPLSLINVRKRNVESGEEELASKLDHYKAKATRHIFLIRHSQYHVDGSLEKDRTLTPLGREQAELTGLRLASLGLKFNKIVHSSMTRAIETTDIISRHLPGVCKVSTDLLREGAPIEPDPPVSHWKPEAVQYYEDGARIEAAFRNYIHRADARQEEDSYEIFICHANVIRYIVCRALQFPPEGWLRLSLNNGSITHLVIRPNGRVALRTLGDTGFMPPDKITRS
With B1 the “binding to XIAP (pull down)” value (GST-XIAP) was “pulled down”, the “ubiquitination by XIAP” value (XIAP) was “ubiquitinates” and the “ubiquitination by cIAP1” value (cIAP1 [1]) was “ubiquitinates”. The “binding to cellular cIAP1” value (cIAP1 [2]) was “specifically binds”.
